“And” between values parts separate entries of the source, which are not always exact repeats. Equal entries are not always repeated. Where two headings read alike, the source gives them in different places.
What was measured:
CocE [1] = target: T1, CocE (Rhodococcus sp., UniProt Q9L9D7); assay: Stabilization against 37° C.-induced formation of high molecular weight CocE aggregates (gel); assay type: physicochemical, Rhodococcus sp. MB 1; settings: for 37° C.-induced formation of high molecular weight CocE aggregates: 0.1 mg/ml enzyme, mM range
T1 construct: generating a full-length CocE gene encoding the T172R mutation; His6 (C); made in house; host or cells: E. coli (pET-22b(+))
Method: Plasmids containing the mutations were transformed into E. coli BL21 cells and IPTG-induced enzyme was purified on Ni-Agarose. Expressed proteins were then tested for enzymatic activity and for thermostability at 37° C. Enzyme activity was measured using the spectrophotometric assay as described in Example 1. Thermostability was also tested via the spectrophotometric assay by pre-incubation of both wild-type and mutants at 37° C. for various times. Additionally, the nature of the thermo-instability of both the wild-type and T172R mutant was analyzed by polyacrylamide gel electrophoresis under denaturing and non-denaturing conditions. Briefly, mutant and wild-type enzyme at 0.1 mg/ml were incubated at 37° C. for various time-points, cooled to 4° C., mixed with SDS-loading dye containing-mercaptoethanol and run on 10% SDS-PAGE gels (denaturing conditions) or run on native 10% polyacrylamide gels (non-denaturing conditions) at 4° C. Gels were fixed with 10% methanol, 7% acetic acid for 30 minutes, and then stained with Sypro-Ruby protein gel stain (Molecular Probes, Invitrogen) for 3 hours. Protein staining was visualized under UV-light using an AlphaImager™ 3400 (Alpha Innotech). Finally, the exact melting temperature of both the wild-type and T172R mutant were determined by circular dichroism using a JASCO-810 spectropolarimeter driven by a JASCO V500/FP-750 analysis program for Windows. The CD spectra were measured in millidegrees and normalized against PBS buffer.
Cocaine esterase (CocE) cleaves cocaine to produce Benzoic acid and Ecgonine methyl ester. Briefly, alternative substrates and inhibitors of cocaine, as well as compounds able to thermostabilize the enzyme, were investigated generally by substituting amide and thiol analogues at the reactive ester bond, or removing the bond (for inhibitors), substituting benzoyl analogues in place of the benzoic acid leaving group, and/or removing or altering the methyl-ester group on the ecgonine portion of the molecule. As discussed below, it was determined that some substrates, products, and inhibitors stabilized thermal denaturation of wild type CocE, as well as prevented thermally-induced aggregation in gel electrophoresis.
Cocaine is the natural substrate of Cocaine esterase (CocE). Cocaine cleavage was monitored by a drop in absorbance at 240 nm. Cocaine (mM range) prevented 37° C.-induced formation of high molecular weight CocE aggregates (0.1 mg/ml enzyme concentrations) (see, e.g., FIG. 33). Cocaine (uM quantities) stabilized 37° C.-induced activity loss (see, e.g., FIG. 34), although the mechanism of this stabilization is complicated due to substrate inhibition at higher concentrations.

CocE [2] = target: T1, CocE; assay: Inhibition of CocE (cleavage of 4-nitrophenyl acetate); assay type: biochemical, Rhodococcus sp. MB 1
Method: Benzoic acid prevented 37° C.-induced formation of high molecular weight CocE aggregates (0.1 mg/ml enzyme concentrations) (see, e.g., FIG. 35). Benzoic acid (uM quantities) stabilized 37° C.-induced activity loss (see, e.g., FIG. 36), although the mechanism of this stabilization is complicated due to substrate inhibition at higher concentrations.
CocE catalyzes the cleavage of 4-nitrophenyl acetate (4NPA) to 4-nitrophenol (4NP) and acetate. The cleavage reaction was monitored by observation of product formation at 400 nm. Both 4NP and 4NPA (mM range) prevented 37° C.-induced formation of high molecular weight CocE aggregates (0.1 mg/ml enzyme concentrations).

[3] = system: WIN 35065-2 induced toxicity; assay: WIN 35065-2 induced lethality in rats; settings: i.p., rats
[4] = Low-UV CD spectra melt with CCA deconvolution; assay type: physicochemical; settings: for #3 formation: accumulation of the fully melted protein; for #2 formation: formation of the intermediate state; for #1 melt: initial spectra melts, 0.2 mg/ml; for #2 melt: melt of the intermediate state
Method: Low-UV CD spectra data were obtained using an Aviv Spectropolarimeter Mode 400, with the help of Norma Greenfield, UMDNJ, using a 5-cell holder and 0.2 mg/ml protein concentrations. Raw data values obtained were blanked on control PBS, smoothed, and deconvoluted using the CCA algorithm as described by A. Perczel, K. Park, and G. D. Fasman, [Analysis of the circular dichroism spectrum of proteins using the convex constraint algorithm: a practical guide. Analytical Biochemistry 203, 83-93 (1992).] This algorithm finds the minimum number of curves needed to reconstruct a data set, and expresses the percentage each curve contributes to the data set as a function of temperature.
Below is presented a low UV CCA denconvolution analysis of CocE WT and 4 mutants, obtained in a single CD spectra melt using a 5-cell holder. The experiment was performed over the period of 8 hours, from 0-80° C.
Temperature dependent melting was observed between the wavelengths tested (200-250 nm), and the smoothed spectra for each mutant are shown in FIG. 29. […] Dose response analysis was used to approximate the temperature at which the initial spectra melts (1), the formation and melt of the intermediate state (2), and the accumulation of the fully melted protein (3).

[5] = against (-) cocaine; cited from earlier work
[6] = Cocaine spectrophotometric assay (240 nm), Michaelis-Menten kinetics

Molecule	#3 formation [4]	#2 formation [4]	#1 melt [4]	#2 melt [4]	other results
O=[N+]([O-])c1ccc(O)cc1 [4NP, 4-nitrophenol]					37° C.-induced formation of high molecular weight CocE aggregates (CocE [1]): prevented
CC(=O)Oc1ccc([N+](=O)[O-])cc1 [4NPA, 4-nitrophenyl acetate]					37° C.-induced formation of high molecular weight CocE aggregates (CocE [1]): prevented
OB(O)c1ccccc1 [Phenylboronic acid]					EC50 (CocE [1]): 200 nM; Ki (CocE [2]): 250 nM
COC(=O)[C@H]1[C@@H](c2ccccc2)C[C@@H]2CC[C@H]1N2C [WIN-35065-2, reference compound]					LD100 [3]: 560 mg/kg
T172R/G173Q (protein, UniProt Q9L9D7 1-574, looked up, variant T172R G173Q) Cocaine esterase: MVDGNYSVASNVMVPMRDGVRLAVDLYRPDADGPVPVLLVRNPYDKFDVFAWSTQSTNWLEFVRDGYAVVIQDTRGLFASEGEFVPHVDDEADAEDTLSWILEQAWCDGNVGMFGVSYLGVTQWQAAVSGVGGLKAIAPSMASADLYRAPWYGPGGALSVEALLGWSALIGRQLITSRSDARPEDAADFVQLAAILNDVAGAASVTPLAEQPLLGRLIPWVIDQVVDHPDNDESWQSISLFERLGGLATPALITAGWYDGFVGESLRTFVAVKDNADARLVVGPWSHSNLTGRNADRKFGIAATYPIQEATTMHKAFFDRHLRGETDALAGVPKVRLFVMGIDEWRDETDWPLPDTAYTPFYLGGSGAANTSTGGGTLSTSISGTESADTYLYDPADPVPSLGGTLLFHNGDNGPADQRPIHDRDDVLCYSTEVLTDPVEVTGTVSARLFVSSSAVDTDFTAKLVDVFPDGRAIALCDGIVRMRYRETLVNPTLIEAGEIYEVAIDMLATSNVFLPGHRIMVQVSSSNFPKYDRNSNTGGVIAREQLEEMCTAVNRIHRGPEHPSHIVLPIIKR	56 °C and 56.61 °C	45.61 °C	40 °C and 40.62 °C	46 °C and 46.17 °C	
Ala328W/Y332A: cocaine hydrolyzing enzyme of Sun et al., 2002a (genetically engineered BChE) (protein, UniProt P06276 29-602, looked up, variant A328W Y332A) Cholinesterase: EDDIIIATKNGKVRGMNLTVFGGTVTAFLGIPYAQPPLGRLRFKKPQSLTKWSDIWNATKYANSCCQNIDQSFPGFHGSEMWNPNTDLSEDCLYLNVWIPAPKPKNATVLIWIYGGGFQTGTSSLHVYDGKFLARVERVIVVSMNYRVGALGFLALPGNPEAPGNMGLFDQQLALQWVQKNIAAFGGNPKSVTLFGESAGAASVSLHLLSPGSHSLFTRAILQSGSFNAPWAVTSLYEARNRTLNLAKLTGCSRENETEIIKCLRNKDPQEILLNEAFVVPYGTPLSVNFGPTVDGDFLTDMPDILLELGQFKKTQILVGVNKDEGTWFLVAGAPGFSKDNNSIITRKEFQEGLKIFFPGVSEFGKESILFHYTDWVDDQRPENYREALGDVVGDYNFICPALEFTKKFSEWGNNAFFYYFEHRSSKLPWPEWMGVMHGYEIEFVFGLPLERRDNYTKAEEILSRSIVKRWANFAKYGNPNETQNNSTSWPVFKSTEQKYLTLNTESTRIMTKLRAQQCRFWTSFFPKVLEMTGNIDEAEWEWKAGFHRWNNYMMDWKNQFNDYTSKKESCVGL					Kcat [5]: 2.57 s⁻¹; Km [5]: 18 µM
S159A (protein, Mutant CocE polypeptide) MVDGNYSVASNVMVPMRDGVRLAVDLYRPDADGPVPVLLVRNPYDKFDVFAWSTQSTNWLEFVRDGYAVVIQDTRGLFASEGEFVPHVDDEADAEDTLSWILEQAWCDGNVGMFGVSYLGVTQWQAAVSGVGGLKAIAPSMASADLYRAPWYGPGGALAVEALLGWSALIGTGLITSRSDARPEDAADFVQLAAILNDVAGAASVTPLAEQPLLGRLIPWVIDQVVDHPDNDESWQSISLFERLGGLATPALITAGWYDGFVGESLRTFVAVKDNADARLVVGPWSHSNLTGRNADRKFGIAATYPIQEATTMHKAFFDRHLRGETDALAGVPKVRLFVMGIDEWRDETDWPLPDTAYTPFYLGGSGAANTSTGGGTLSTSISGTESADTYLYDPADPVPSLGGTLLFHNGDNGPADQRPIHDRDDVLCYSTEVLTDPVEVTGTVSARLFVSSSAVDTDFTAKLVDVFPDGRAIALCDGIVRMRYRETLVNPTLIEAGEIYEVAIDMLATSNVFLPGHRIMVQVSSSNFPKYDRNSNTGGVIAREQLEEMCTAVNRIHRGPEHPSHIVLPIIKR					Km ([6]; 40 min @ 37° C.): 15.7 µM; Km ([6]; no preincubation): 43.6 µM
T172R/A193D: mutant CocE polypeptide (protein, UniProt Q9L9D7 1-574, looked up, variant T172R A193D) Cocaine esterase: MVDGNYSVASNVMVPMRDGVRLAVDLYRPDADGPVPVLLVRNPYDKFDVFAWSTQSTNWLEFVRDGYAVVIQDTRGLFASEGEFVPHVDDEADAEDTLSWILEQAWCDGNVGMFGVSYLGVTQWQAAVSGVGGLKAIAPSMASADLYRAPWYGPGGALSVEALLGWSALIGRGLITSRSDARPEDAADFVQLDAILNDVAGAASVTPLAEQPLLGRLIPWVIDQVVDHPDNDESWQSISLFERLGGLATPALITAGWYDGFVGESLRTFVAVKDNADARLVVGPWSHSNLTGRNADRKFGIAATYPIQEATTMHKAFFDRHLRGETDALAGVPKVRLFVMGIDEWRDETDWPLPDTAYTPFYLGGSGAANTSTGGGTLSTSISGTESADTYLYDPADPVPSLGGTLLFHNGDNGPADQRPIHDRDDVLCYSTEVLTDPVEVTGTVSARLFVSSSAVDTDFTAKLVDVFPDGRAIALCDGIVRMRYRETLVNPTLIEAGEIYEVAIDMLATSNVFLPGHRIMVQVSSSNFPKYDRNSNTGGVIAREQLEEMCTAVNRIHRGPEHPSHIVLPIIKR	58.72 °C	46.47 °C	38.11 °C	47.68 °C	
T172R-F189K (protein, UniProt Q9L9D7 1-574, looked up, variant T172R F189K) Cocaine esterase: MVDGNYSVASNVMVPMRDGVRLAVDLYRPDADGPVPVLLVRNPYDKFDVFAWSTQSTNWLEFVRDGYAVVIQDTRGLFASEGEFVPHVDDEADAEDTLSWILEQAWCDGNVGMFGVSYLGVTQWQAAVSGVGGLKAIAPSMASADLYRAPWYGPGGALSVEALLGWSALIGRGLITSRSDARPEDAADKVQLAAILNDVAGAASVTPLAEQPLLGRLIPWVIDQVVDHPDNDESWQSISLFERLGGLATPALITAGWYDGFVGESLRTFVAVKDNADARLVVGPWSHSNLTGRNADRKFGIAATYPIQEATTMHKAFFDRHLRGETDALAGVPKVRLFVMGIDEWRDETDWPLPDTAYTPFYLGGSGAANTSTGGGTLSTSISGTESADTYLYDPADPVPSLGGTLLFHNGDNGPADQRPIHDRDDVLCYSTEVLTDPVEVTGTVSARLFVSSSAVDTDFTAKLVDVFPDGRAIALCDGIVRMRYRETLVNPTLIEAGEIYEVAIDMLATSNVFLPGHRIMVQVSSSNFPKYDRNSNTGGVIAREQLEEMCTAVNRIHRGPEHPSHIVLPIIKR	57.23 °C	46.81 °C	38.8 °C	48.42 °C	

Source: patent US9200265B2, “Anti-cocaine compositions and treatment” (priority 2006, dated 2015)
